The values that follow come from article PMC12948223, “HSP70 Interactome‐Mediated Proteolysis Targeting Chimera (HSP70‐PROTAC) for Ferroptosis‐Driven Cancer Treatment” (Advanced Science, 2025).

Experiment [1] concerns the target T1, heat shock cognate protein 70 (Hsc70), recombinant (human, UniProt P11142 1-646).
T1 construct: Hsc70 (HSPA8), human, bought recombinant protein; see the vendor's data sheet for HY-P73915A; also called HSPA8; heat shock cognate 70 protein; source: bought: MedChemExpress, #HY-P73915A (recombinant protein)
The experiment can be described thus: SPR; Biacore 8K; human Hsc70 immobilised on a CM5 chip; GPX4 without compound (binary complex); PBS pH 7.4 running buffer, 30 uL/min, 25 °C, 120 s association and 120 s dissociation. To be noted: both partners purified.

The target in experiment [2] is T1, heat shock cognate protein 70 (Hsc70), …. Kind of experiment: SPR; Biacore 8K; Hsc70 immobilised on a CM5 chip; GDAz-3 at 1 uM preincubated with GPX4 (ternary-complex measurement); PBS pH 7.4, 30 uL/min, 25 °C, 120 s association and 120 s dissociation. The conditions noted are these: both partners purified. On the technique in general: SPR reads the build-up and loss of mass on a sensor chip optically.

T1 sequence (P11142 whole entry): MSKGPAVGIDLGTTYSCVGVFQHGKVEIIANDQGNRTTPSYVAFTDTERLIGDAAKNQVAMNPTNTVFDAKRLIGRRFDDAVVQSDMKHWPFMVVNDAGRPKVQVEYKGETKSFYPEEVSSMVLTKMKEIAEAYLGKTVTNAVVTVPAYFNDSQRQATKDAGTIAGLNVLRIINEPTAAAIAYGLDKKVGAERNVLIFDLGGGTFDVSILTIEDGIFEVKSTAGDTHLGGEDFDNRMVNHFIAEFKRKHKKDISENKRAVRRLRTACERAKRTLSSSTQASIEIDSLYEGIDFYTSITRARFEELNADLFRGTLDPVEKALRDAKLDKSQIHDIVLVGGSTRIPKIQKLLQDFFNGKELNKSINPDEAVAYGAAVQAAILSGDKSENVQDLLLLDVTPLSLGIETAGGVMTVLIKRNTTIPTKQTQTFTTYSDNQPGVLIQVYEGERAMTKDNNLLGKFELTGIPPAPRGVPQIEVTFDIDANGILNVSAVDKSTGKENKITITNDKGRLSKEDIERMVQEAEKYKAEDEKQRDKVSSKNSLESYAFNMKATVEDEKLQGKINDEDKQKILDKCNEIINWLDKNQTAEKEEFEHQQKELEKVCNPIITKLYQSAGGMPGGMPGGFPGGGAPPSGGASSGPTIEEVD

B1: glutathione peroxidase 4 (GPX4), recombinant (enzyme)
chain: MCASRDDWRCARSMHEFSAKDIDGHMVNLDKYRGFVCIVTNVASQUGKTEVNYTQLVDLHARYAECGLRILAFPCNQFGKQEPGSNEEIKEFAAGYNVKFDMFSKICVNGDDAHPLWKWMKIQPKGKGILGNAIKWNFTKFLIDKNGCVVKRYGPMEEPLVIEKDLPHYF
modifications: Limits are by convention: cytosolic isoform, starting at precursor Met28 (paper numbering + 27, so Sec46 = U73; matches the start of 6HKQ). The commercial protein's limits and tag are not stated. …
As for B1, the Kd (usually the constant that tells how readily two partners part at equilibrium) in experiment [1] is 100 nM. The “KD with GDAz-3” value in experiment [2] was determined as 23.9 nM.
